What was measured:
Test in all cases: fluorescence anisotropy
Details in all cases: 2 mM Mg2+, 20 mM HEPES pH 7.9, 100 mM KCl, 2 mM MgCl2, 0.5 mM EDTA, 1 mM DTT, 0.2 mg/mL BSA, 5 nM 6-FAM-DNA, 25 C
[1] = tested on: FL-p53 (thermostable, cysteine-modified mutant) (human)
TetCT mutant (human) = tested on: TetCT mutant (human)
CoreTet mutant (human) = tested on: CoreTet mutant (human)

## nspDNA (random sequence)
[1]; 75 uM DP6
  Kd: 0.032 µM
[1]; 150 uM DP6
  Kd: 0.057 µM
[1]; 300 uM DP5
  Kd: 0.055 µM
[1]; 300 uM DP6
  Kd: 0.09 µM
[1]; 450 uM DP6
  Kd: 0.13 µM
[1]; 600 uM DP5
  Kd: 0.061 µM
[1]; 600 uM DP6
  Kd: 0.16 µM
[1]; no DP5 (DP5 series)
  Kd: 0.049 µM
[1]; no DP6
  Kd: 0.024 µM
TetCT mutant (human); 75 uM DP6
  Kd: 0.34 µM
TetCT mutant (human); no DP6
  Kd: 0.11 µM

## spDNA (p21)
[1]; 75 uM DP6
  Kd: 0.0092 µM
[1]; 150 uM DP6
  Kd: 0.012 µM
[1]; 300 uM DP5
  Kd: 0.0085 µM
[1]; 300 uM DP6
  Kd: 0.02 µM
[1]; 450 uM DP6
  Kd: 0.022 µM
[1]; 600 uM DP5
  Kd: 0.0053 µM
[1]; 600 uM DP6
  Kd: 0.021 µM
[1]; no DP5 (DP5 series)
  Kd: 0.0066 µM
[1]; no DP6
  Kd: 0.0072 µM
CoreTet mutant (human); 600 uM DP6
  Kd: 0.013 µM
CoreTet mutant (human); no DP6
  Kd: 0.019 µM

From article PMC6599006, “Rational design using sequence information only produces a peptide that binds to the intrinsically disordered region of p53” (Scientific Reports, 2019)
